Source: the supplement of paper PMC9170038

Test system: MS2 coat protein
Assay: apparent KD of MS2 coat protein; designed switch direction (-1 OFF switch, 1 ON switch): -1; higher = weaker reporter binding
Summary of the method: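 Designed RNA switches were transcribed on Illumina chips by stalled E. coli RNA polymerase and titrated with SNAP-549-labelled MS2 coat protein from 0.7 or 1.5 nM, doubling to 3 µM. Step length ran from 0.8–1.5 h at the lowest concentration to 10–20 min at the highest. The apparent KD is the median over clusters for each design, from curve-fitted normalised cluster fluorescence.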

[1] = Eterna round: R95, input ligand: microRNA oligo, concentration not stated
[2] = input ligand: microRNA oligo, concentration not stated
[3] = Eterna round: R95, input ligand: FMN 200 uM
[4] = Eterna round: R95, input ligand: none

Sequence | apparent KD of MS2 coat protein (input ligand: FMN 200 uM) [nM] | apparent KD of MS2 coat protein (input ligand: none) [nM] | apparent KD of MS2 coat protein [1] [nM] | further results
UUUACAAGCUAAAGAUCCCACAUGAGGAUCACCCAUGUUGCUGCCGGUGACGGUAGCAUAACUUUUGCUCGUCUUAU [JL TOV1 3.59] (Eterna round: R97, puzzle: Sensor, turn-off variant 1) | 278 | 342 | – | –
UUUACAAGCUAAUGAUCCCACAUGAGGAUCACCCAUGUUGCUGCCGUGAGGUAGCUUUUAACAUUUGCUCGUCUUAU [JL TOV1 3.40] (Eterna round: R97, puzzle: Sensor, turn-off variant 1) | 733 | 1060 | – | –
UUUACAAGCUAUAGAUCCCACAUGAGGAUCACCCAUGUAGCUGCCAACGGUAGCUUUUUAUGGUUUGCUCGUCUUAU [JL TOV1 3.34] (Eterna round: R97, puzzle: Sensor, turn-off variant 1) | 424 | 1210 | – | –
UUUACAAGCUUUUGAUCCCACAUGAGGAUCACCCAUGUUGCUGCCGGUGACGGUAGCAUAACAAAUGCUCGUCUUAU [JL TOV1 3.55] (Eterna round: R97, puzzle: Sensor, turn-off variant 1) | 846 | 1160 | – | –
UUUAGUAUCUAGGAUAUCUAGUACAUAGUAUCUAGAGAAGGAGAUACAUGAGGAUCACCCAUGUUCUGUGUUCU [Exclusion 6 - 1:a] (puzzle: Exclusion 6) | – | – | 22.4 | –
UUUAGUUCAGGAUAUGAUGAAUUAAACAUGAGGAUCACCCAUGUAGAUCCUGAAUUAACAUCAGAAGGGAACAUUU [JL-ex5-4.48 Brourd mod] (Eterna round: R97, puzzle: Exclusion 5) | 41.8 | 15 | – | –
UUUAGUUCAGGAUAUGUAGACAUUAACAUGAGGAUCACCCAUGUAGAUCCUGAAUUAACUACAGAAGGGAGCAUUU [Mod of Brourd 8 - Jieux - Exclusion 5] (Eterna round: R97, puzzle: Exclusion 5) | 19.3 | 15.3 | – | –
UUUAGUUCAGGAUAUGUAGAUUUUAACAUGAGGAUCACCCAUGUAGAUCCUGAAUUAACUACAGAAGGGAACAUUU [Exclusion 5: 2:a] (Eterna round: R96, puzzle: Exclusion 5) | 94.3 | 24.3 | – | apparent KD of MS2 coat protein [2]: 20.2 nM
UUUAGUUCAGGAUAUGUAGAUUUUAACAUGAGGAUCACCCAUGUAGAUCCUGAAUUAACUACAGAAGGGAACAUUU [Exclusion 5: 2:a] (puzzle: Exclusion 5) | – | – | 24.9 | –
UUUAGUUCAGGAUAUGUAGAUUUUAACAUGAGGAUCACCCAUGUAGAUCCUGAAUUAACUACAGAAGGGAACAUUU [Mod of Brourd 1 - Jieux - Exclusion 5] (Eterna round: R97, puzzle: Exclusion 5) | 77.2 | 22.5 | – | –
UUUAGUUCAGGAUAUGUAGUUUUAAACAUGAGGAUCACCCAUGUAGAACCUGAUCCUGCUACAGAAGGGAACAUUU [Mat - Exclusion 5 - Eli Mod - D14] (Eterna round: R97, puzzle: Exclusion 5) | 32 | 18.2 | – | –
UUUAUAAUUUCAAUCUUCGCCAGCAAACUUACGCUAGCCACAUGAGGAUCACCCAUGUUUUUUGUUCGUUUUAUUCU [Veedcera] (puzzle: Sensor v3, turn-off variant 2) | – | – | 57.5 | apparent KD of MS2 coat protein [3]: 18 nM; apparent KD of MS2 coat protein [4]: 19.5 nM
UUUAUAAUUUCAAUCUUCGCUGGCAAACUUACGCCAGCCACAUGAGGAUCACCCAUGUUUUUUGUUCGUUUUACUCU [Tetevea] (puzzle: Sensor v3, turn-off variant 2) | – | – | 64 | apparent KD of MS2 coat protein [3]: 18 nM; apparent KD of MS2 coat protein [4]: 22.5 nM
UUUAUAUAGUAAGGAUAUGUAUUAAUUUUAUAGACAGAAGGUACUGACAUGAGGAUCACCCAUGUUUUAGUGUGGGCAUGUAGU [JMF's solution 94] (Eterna round: R96, puzzle: Exclusion NG 1) | – | – | – | apparent KD of MS2 coat protein [2]: 299 nM
UUUAUGUCAGGAUAUACAUGAGGAUCACCCAUGUAUAUCUUAAGGUAUACAUGGGAAUGUAGAAGGGACCUCCU [Omei Ex3 Pseudoloop 7] (Eterna round: R97, puzzle: Exclusion 3) | 40.7 | 41.3 | – | –
UUUAUUUUGCAAGGAUAUGUUUAAUUUUAGUUUCCUUACACAUGAGGAUCACCCAUGUUAUACUUACAGAAGGUGCAUAAUUUU [JR_ExcNG2_Sub038] (Eterna round: R96, puzzle: Exclusion NG 2) | – | – | – | apparent KD of MS2 coat protein [2]: 132 nM
UUUCAGCAAGGAUAUACGGGCUGUGCUUUUCAUUUCUUACAACAUGAGGAUCACCCAUGUAGAAGGUGCAACUU [Ex2 #10] (Eterna round: R97, puzzle: Exclusion 2) | 110 | 26.5 | – | –
UUUCAUCAUGUAGGAUAUGCGUGGCAAAGCUAUGCAGAAGGACAUGAGGAUCACCCAUGUUCUAGCGUCUGCGUACAGAUGCUA [Mat - Exclusion NG 1 - Mod of JL - D73] (Eterna round: R96, puzzle: Exclusion NG 1) | 404 | 68 | – | apparent KD of MS2 coat protein [2]: 43.2 nM
UUUCCCUGGCAAGGAUAUCCUGUGCGGUUCCGGCUCGUGUCUGUUACAUGAGGAUCACCCAUGUGGGAGAAGGUGCCUGUGGUU [Design 90] (Eterna round: R96, puzzle: Exclusion NG 2) | 390 | 220 | – | apparent KD of MS2 coat protein [2]: 173 nM
UUUCCCUGUGUGAGGAUAUACUUGUUUGGGUUUUUGUAGAAGGCACAUGAGGAUCACCCAUGUACUCUGUCGUG [JR_BME4_Sub021] (puzzle: Brourd's mod of Exclusion 4) | – | – | 21.1 | –
UUUCCUUGUGUGAGGAUAUACUUGUUUGUGUUUUUGUAGAAGGCACAUGAGGAUCACCCAUGUACUCUUUCCUG [JR_BME4_Sub023] (Eterna round: R96, puzzle: Brourd's mod of Exclusion 4) | 68.6 | 37.7 | – | apparent KD of MS2 coat protein [2]: 34.7 nM
UUUCCUUGUGUGAGGAUAUACUUGUUUGUGUUUUUGUAGAAGGCACAUGAGGAUCACCCAUGUACUCUUUCCUG [JR_BME4_Sub023] (puzzle: Brourd's mod of Exclusion 4) | – | – | 34.2 | –
UUUCGGCGGACCGUGGCUUUUUGCUCGUCUUAUGCUUCGACAUGAGGAUCACCCAUGUGGUGGUGGUCCGUUGUUGU [Grok-var2-12 mod JAL] (puzzle: Sensor v3, turn-off variant 2) | – | – | 20.3 | apparent KD of MS2 coat protein [3]: 29.9 nM; apparent KD of MS2 coat protein [4]: 48.9 nM
